The text below walks through data of patent US20180155411A1.

Experiment [1] has as its target VP7 of rotavirus strain 116E (G9P[11]) (human rotavirus), Q99706. The experiment in a line: cell-based or functional assay.
Experiment [2] addresses VP4 of rotavirus strain 116E (G9P[11]) (human rotavirus), Q99706. The experiment in a line: cell-based or functional assay.

Bounds are passed on as bounds.

VP7 of rotavirus strain 116E (G9P[11]) (human rotavirus), Q99706, sequence (Q99706 22-377): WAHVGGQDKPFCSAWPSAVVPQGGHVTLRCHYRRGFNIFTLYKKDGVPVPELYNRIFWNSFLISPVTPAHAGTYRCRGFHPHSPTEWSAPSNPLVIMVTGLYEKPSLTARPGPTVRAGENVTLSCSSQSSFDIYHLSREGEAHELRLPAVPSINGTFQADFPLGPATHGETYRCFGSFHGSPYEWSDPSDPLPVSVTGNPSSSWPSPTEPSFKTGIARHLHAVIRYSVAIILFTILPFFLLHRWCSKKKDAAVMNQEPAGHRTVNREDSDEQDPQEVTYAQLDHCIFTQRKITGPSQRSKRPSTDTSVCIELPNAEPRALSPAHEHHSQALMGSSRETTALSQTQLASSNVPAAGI
VP4 of rotavirus strain 116E (G9P[11]) (human rotavirus), Q99706, sequence (Q99706 22-377): as above

B1: mAb #57 (antibody, V domains shown)
VH: QVQLVESGGGVVQSGRSLRLSCAASGFTFRSYAMHWVRQAPGKGLEWVADLSLDGSHKYADSVRGRFTISSDSSKNTVYLQMNSLRTEDTAIYYCARAAGIMVAGTFLTEFYFDYWGQGTLVTVSS
VL: QSVLTQPPSVSGAPGQRVTISCTGSSSNIGAGYDVHWYQQLPGTAPKLLIYGNIKRPSGVPDRFSGSKSGTSASLAITGLQTEDEADYYCQSYDSSLSAYYVFGTGTRVTVL
In turn, B1 registered an in vitro neutralization in experiment [1] greater than 625 ng/mL.

B2: mAb #49 (antibody, V domains shown)
VH: DVQLVESGGGLVQPGGSVRLSCSASRFTFSNYAMYWVRQAPGKGLEYVSSISSDGGSTYYAESVKGRFTISRDNSKNTLYLQMRSLRAEDAAVYYCVTDVLRLPYSTGWSPGDFIYWGQGTLVTVSS
VL: DIQMTQSPSILYASVGDRVTITCRASQSVSSWLAWYQQKPGKVPKLLIYQASTLENGVPSRFSGSGSGTEFILTISSLQPDDFATYYCQHYNVLWTFGQGTKVEIK
B2 gave an in vitro neutralization in experiment [2] greater than 625 ng/mL.

B3: mAb #46 (antibody, V domains shown)
VH: QVQLQESGPGLVKPSETLSLTCTVSGGSINSYYWSWIRQSPGKGLEWIGYVFYSGITKYNPSLQSRVTISLDMGKNQFSLKLTSVNAADAAVYYCARNFPSYTPDWFFDLWGRGTLVTVSS
VL: EIVLTQSPGTLSLSPGERATLSCRASQSVSSDNLAWYQQKPGQPPRLLIYGASHRATGIPDRFSGSGSGTDFTLTISRLEPEDFAVYHCQQYGSSPLTFGGGTKVEIK
Molecule B3 showed an in vitro neutralization in experiment [1] greater than 625 ng/mL.
